Experimental data published in the supplement of paper PMC9428881.
± gives the standard error.

Assay: background-corrected fluorescence of 3'-dye-labeled ssDNA relative to brightest sequence (3'-GCGCG) (fraction); higher = brighter dye fluorescence (less quenching)
How it was run: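 Arrays of single-stranded DNA, with a 3' Cy3 or Cy5 dye beside each of 1024 permuted pentamers, were built on glass slides through light-directed phosphoramidite synthesis. They were washed for 2 h at r.t. in acetonitrile and scanned at 532 or 635 nm, once before and once after overnight ethylenediamine/ethanol deprotection. Fluorescence is reported after subtracting unlabeled-oligo background and normalizing to the brightest sequence. Averages cover 10 features per array and at least 3 syntheses.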

Sequence | background-corrected fluorescence (dye: Cy3 (3' terminal)) | background-corrected fluorescence (dye: Cy5 (3' terminal))
TTTTTTGAGCAGCATCATGCTTTTTTTTTTTTTTTCTTGA [AGTTC] | 0.615 ± 0.027 | 0.53 ± 0.07
TTTTTTGAGCAGCATGAGCATTTTTTTTTTTTTTTCTTCT | 0.441 ± 0.027 | 0.342 ± 0.027
TTTTTTGAGCAGCATGATCATTTTTTTTTTTTTTTCTTCG [GCTTC] | 0.477 ± 0.0068 | 0.384 ± 0.019
TTTTTTGAGCAGCATGATGATTTTTTTTTTTTTTTCTTCC [CCTTC] | 0.345 ± 0.016 | 0.229 ± 0.015
TTTTTTGAGCAGCATGATGCTTTTTTTTTTTTTTTCTTCA [ACTTC] | 0.455 ± 0.027 | 0.382 ± 0.041
TTTTTTGAGCAGCATGCGCATTTTTTTTTTTTTTTCTTAT [TATTC] | 0.513 ± 0.029 | 0.369 ± 0.025
TTTTTTGAGCAGCATGCTCATTTTTTTTTTTTTTTCTTAG [GATTC] | 0.528 ± 0.014 | 0.395 ± 0.039
TTTTTTGAGCAGCATGCTGATTTTTTTTTTTTTTTCTTAC [CATTC] | 0.404 ± 0.026 | 0.3 ± 0.017
TTTTTTGAGCAGCATGCTGCTTTTTTTTTTTTTTTCTTAA [AATTC] | 0.562 ± 0.019 | 0.427 ± 0.039
TTTTTTGAGCATCAGCAGCATTTTTTTTTTTTTTTCTGTT [TTGTC] | 0.541 ± 0.023 | 0.411 ± 0.033
TTTTTTGAGCATCAGCATCATTTTTTTTTTTTTTTCTGTG [GTGTC] | 0.559 ± 0.039 | 0.425 ± 0.021
TTTTTTGAGCATCAGCATGATTTTTTTTTTTTTTTCTGTC | 0.443 ± 0.03 | 0.352 ± 0.018
TTTTTTGAGCATCAGCATGCTTTTTTTTTTTTTTTCTGTA [ATGTC] | 0.571 ± 0.019 | 0.429 ± 0.072
TTTTTTGAGCATCATCAGCATTTTTTTTTTTTTTTCTGGT [TGGTC] | 0.653 ± 0.018 | 0.557 ± 0.035
TTTTTTGAGCATCATCATCATTTTTTTTTTTTTTTCTGGG [GGGTC] | 0.668 ± 0.018 | 0.563 ± 0.043
TTTTTTGAGCATCATCATGATTTTTTTTTTTTTTTCTGGC [CGGTC] | 0.533 ± 0.0091 | 0.439 ± 0.035
TTTTTTGAGCATCATCATGCTTTTTTTTTTTTTTTCTGGA [AGGTC] | 0.69 ± 0.023 | 0.605 ± 0.047
TTTTTTGAGCATCATGAGCATTTTTTTTTTTTTTTCTGCT [TCGTC] | 0.492 ± 0.021 | 0.39 ± 0.049
TTTTTTGAGCATCATGATCATTTTTTTTTTTTTTTCTGCG [GCGTC] | 0.589 ± 0.024 | 0.483 ± 0.051
TTTTTTGAGCATCATGATGATTTTTTTTTTTTTTTCTGCC [CCGTC] | 0.402 ± 0.027 | 0.312 ± 0.018
TTTTTTGAGCATCATGATGCTTTTTTTTTTTTTTTCTGCA [ACGTC] | 0.557 ± 0.03 | 0.452 ± 0.046
TTTTTTGAGCATCATGCGCATTTTTTTTTTTTTTTCTGAT [TAGTC] | 0.59 ± 0.02 | 0.455 ± 0.036
TTTTTTGAGCATCATGCTCATTTTTTTTTTTTTTTCTGAG [GAGTC] | 0.621 ± 0.024 | 0.479 ± 0.041

Sequence | background-corrected fluorescence (dye: Cy3 (3' terminal)) | background-corrected fluorescence (dye: Cy5 (3' terminal))
TTTTTTGAGCATCATGCTGATTTTTTTTTTTTTTTCTGAC [CAGTC] | 0.465 ± 0.024 | 0.354 ± 0.033
TTTTTTGAGCATCATGCTGCTTTTTTTTTTTTTTTCTGAA [AAGTC] | 0.575 ± 0.026 | 0.514 ± 0.029
TTTTTTGAGCATGAGCAGCATTTTTTTTTTTTTTTCTCTT | 0.49 ± 0.0076 | 0.334 ± 0.024
TTTTTTGAGCATGAGCATCATTTTTTTTTTTTTTTCTCTG [GTCTC] | 0.48 ± 0.018 | 0.352 ± 0.033
TTTTTTGAGCATGAGCATGATTTTTTTTTTTTTTTCTCTC | 0.357 ± 0.036 | 0.284 ± 0.019
TTTTTTGAGCATGAGCATGCTTTTTTTTTTTTTTTCTCTA [ATCTC] | 0.483 ± 0.0051 | 0.36 ± 0.023
TTTTTTGAGCATGATCAGCATTTTTTTTTTTTTTTCTCGT [TGCTC] | 0.567 ± 0.015 | 0.416 ± 0.024
TTTTTTGAGCATGATCATCATTTTTTTTTTTTTTTCTCGG [GGCTC] | 0.641 ± 0.034 | 0.508 ± 0.037
TTTTTTGAGCATGATCATGATTTTTTTTTTTTTTTCTCGC [CGCTC] | 0.548 ± 0.032 | 0.412 ± 0.035
TTTTTTGAGCATGATCATGCTTTTTTTTTTTTTTTCTCGA [AGCTC] | 0.599 ± 0.011 | 0.49 ± 0.03
TTTTTTGAGCATGATGAGCATTTTTTTTTTTTTTTCTCCT [TCCTC] | 0.41 ± 0.018 | 0.33 ± 0.032
TTTTTTGAGCATGATGATCATTTTTTTTTTTTTTTCTCCG [GCCTC] | 0.531 ± 0.02 | 0.426 ± 0.028
TTTTTTGAGCATGATGATGATTTTTTTTTTTTTTTCTCCC [CCCTC] | 0.377 ± 0.029 | 0.269 ± 0.018
TTTTTTGAGCATGATGATGCTTTTTTTTTTTTTTTCTCCA [ACCTC] | 0.441 ± 0.019 | 0.356 ± 0.055
TTTTTTGAGCATGATGCGCATTTTTTTTTTTTTTTCTCAT [TACTC] | 0.513 ± 0.018 | 0.378 ± 0.019
TTTTTTGAGCATGATGCTCATTTTTTTTTTTTTTTCTCAG [GACTC] | 0.517 ± 0.024 | 0.389 ± 0.03
TTTTTTGAGCATGATGCTGATTTTTTTTTTTTTTTCTCAC [CACTC] | 0.391 ± 0.046 | 0.314 ± 0.022
TTTTTTGAGCATGATGCTGCTTTTTTTTTTTTTTTCTCAA [AACTC] | 0.52 ± 0.042 | 0.395 ± 0.02
TTTTTTGAGCATGCGCAGCATTTTTTTTTTTTTTTCTATT [TTATC] | 0.527 ± 0.047 | 0.402 ± 0.056
TTTTTTGAGCATGCGCATCATTTTTTTTTTTTTTTCTATG [GTATC] | 0.564 ± 0.015 | 0.383 ± 0.029
TTTTTTGAGCATGCGCATGATTTTTTTTTTTTTTTCTATC | 0.373 ± 0.025 | 0.309 ± 0.018
TTTTTTGAGCATGCGCATGCTTTTTTTTTTTTTTTCTATA [ATATC] | 0.527 ± 0.018 | 0.411 ± 0.023
TTTTTTGAGCATGCTCAGCATTTTTTTTTTTTTTTCTAGT [TGATC] | 0.612 ± 0.019 | 0.451 ± 0.029

Sequence | background-corrected fluorescence (dye: Cy3 (3' terminal)) | background-corrected fluorescence (dye: Cy5 (3' terminal))
TTTTTTGAGCATGCTCATCATTTTTTTTTTTTTTTCTAGG [GGATC] | 0.647 ± 0.019 | 0.507 ± 0.036
TTTTTTGAGCATGCTCATGATTTTTTTTTTTTTTTCTAGC [CGATC] | 0.508 ± 0.033 | 0.407 ± 0.04
TTTTTTGAGCATGCTCATGCTTTTTTTTTTTTTTTCTAGA [AGATC] | 0.608 ± 0.035 | 0.529 ± 0.026
TTTTTTGAGCATGCTGAGCATTTTTTTTTTTTTTTCTACT [TCATC] | 0.454 ± 0.0046 | 0.33 ± 0.024
TTTTTTGAGCATGCTGATCATTTTTTTTTTTTTTTCTACG [GCATC] | 0.565 ± 0.027 | 0.416 ± 0.022
TTTTTTGAGCATGCTGATGATTTTTTTTTTTTTTTCTACC [CCATC] | 0.375 ± 0.032 | 0.284 ± 0.016
TTTTTTGAGCATGCTGATGCTTTTTTTTTTTTTTTCTACA [ACATC] | 0.498 ± 0.043 | 0.364 ± 0.024
TTTTTTGAGCATGCTGCGCATTTTTTTTTTTTTTTCTAAT [TAATC] | 0.542 ± 0.015 | 0.394 ± 0.027
TTTTTTGAGCATGCTGCTCATTTTTTTTTTTTTTTCTAAG [GAATC] | 0.542 ± 0.044 | 0.427 ± 0.031
TTTTTTGAGCATGCTGCTGATTTTTTTTTTTTTTTCTAAC [CAATC] | 0.407 ± 0.026 | 0.316 ± 0.032
TTTTTTGAGCATGCTGCTGCTTTTTTTTTTTTTTTCTAAA [AAATC] | 0.569 ± 0.008 | 0.457 ± 0.021
TTTTTTGATCAGCAGCAGCATTTTTTTTTTTTTTTCGTTT [TTTGC] | 0.528 ± 0.017 | 0.393 ± 0.026
TTTTTTGATCAGCAGCATCATTTTTTTTTTTTTTTCGTTG [GTTGC] | 0.533 ± 0.023 | 0.422 ± 0.051
TTTTTTGATCAGCAGCATGATTTTTTTTTTTTTTTCGTTC [CTTGC] | 0.417 ± 0.036 | 0.321 ± 0.028
TTTTTTGATCAGCAGCATGCTTTTTTTTTTTTTTTCGTTA [ATTGC] | 0.561 ± 0.012 | 0.398 ± 0.052
TTTTTTGATCAGCATCAGCATTTTTTTTTTTTTTTCGTGT [TGTGC] | 0.571 ± 0.022 | 0.466 ± 0.037
TTTTTTGATCAGCATCATCATTTTTTTTTTTTTTTCGTGG [GGTGC] | 0.622 ± 0.021 | 0.483 ± 0.033
TTTTTTGATCAGCATCATGATTTTTTTTTTTTTTTCGTGC | 0.504 ± 0.033 | 0.397 ± 0.027
TTTTTTGATCAGCATCATGCTTTTTTTTTTTTTTTCGTGA [AGTGC] | 0.634 ± 0.016 | 0.531 ± 0.037
TTTTTTGATCAGCATGAGCATTTTTTTTTTTTTTTCGTCT [TCTGC] | 0.485 ± 0.02 | 0.36 ± 0.015
TTTTTTGATCAGCATGATCATTTTTTTTTTTTTTTCGTCG [GCTGC] | 0.609 ± 0.03 | 0.463 ± 0.024
TTTTTTGATCAGCATGATGATTTTTTTTTTTTTTTCGTCC [CCTGC] | 0.4 ± 0.0041 | 0.315 ± 0.021
